Measurements as given in US20120058906A1.

Experiments:
[1] = target: rHuman EGF R/Fc Chimera, CF (R&D Systems Cat#344-ER) (human) (UniProt P00533); assay: ECL (MSD multi-spot), Fab 145 nM; blank 357
[2] = target: rHuman Erythropoietin R/Fc Chimera, CF (R&D Systems Cat#963-ER) (human) (UniProt P19235); assay: ECL (MSD multi-spot), Fab 145 nM; blank 357
[3] = target: rHuman HGF R/c-MET/Fc Chimera, CF (R&D Systems Cat#358-MT/CF) (human) (UniProt P08581); assay: ECL (MSD multi-spot), Fab 145 nM; blank 357
[4] = target: rHuman IGF-1 sR (IGF-1 sR), CF (R&D Systems Cat#391-GR) (human) (UniProt P08069); assay: ECL (MSD multi-spot), Fab 145 nM; blank 357
[5] = target: rHuman Notch-1/Fc Chimera, CF (R&D Systems Cat#3647-TK) (human) (UniProt P46531); assay: ECL (MSD multi-spot), Fab 145 nM; blank 357
[6] = target: rHuman P-Cadherin/Fc Chimera, CF (R&D Systems Cat#861-PC) (human) (UniProt P22223); assay: ECL (MSD multi-spot), Fab 145 nM; blank 357
[7] = target: rHuman EGF R/Fc Chimera, CF (R&D Systems Cat#344-ER) (human) (UniProt P00533); assay: ECL (MSD multi-spot), Fab 580 nM; blank 679
[8] = target: rHuman ErbB2/Fc Chimera, CF (R&D Systems Cat#1129-ER) (human) (UniProt P04626); assay: ECL (MSD multi-spot), Fab 580 nM; blank 679
[9] = target: rHuman Erythropoietin R/Fc Chimera, CF (R&D Systems Cat#963-ER) (human) (UniProt P19235); assay: ECL (MSD multi-spot), Fab 580 nM; blank 679
[10] = target: rHuman HGF R/c-MET/Fc Chimera, CF (R&D Systems Cat#358-MT/CF) (human) (UniProt P08581); assay: ECL (MSD multi-spot), Fab 580 nM; blank 679
[11] = target: rHuman IGF-1 sR (IGF-1 sR), CF (R&D Systems Cat#391-GR) (human) (UniProt P08069); assay: ECL (MSD multi-spot), Fab 580 nM; blank 679
[12] = target: rHuman Notch-1/Fc Chimera, CF (R&D Systems Cat#3647-TK) (human) (UniProt P46531); assay: ECL (MSD multi-spot), Fab 580 nM; blank 679
[13] = target: rHuman P-Cadherin/Fc Chimera, CF (R&D Systems Cat#861-PC) (human) (UniProt P22223); assay: ECL (MSD multi-spot), Fab 580 nM; blank 679
[14] = target: rHuman EGF R/Fc Chimera, CF (R&D Systems Cat#344-ER) (human) (UniProt P00533); assay: ECL (MSD multi-spot), Fab 9.1 nM; blank 276
[15] = target: rHuman ErbB2/Fc Chimera, CF (R&D Systems Cat#1129-ER) (human) (UniProt P04626); assay: ECL (MSD multi-spot), Fab 9.1 nM; blank 276
[16] = target: rHuman Erythropoietin R/Fc Chimera, CF (R&D Systems Cat#963-ER) (human) (UniProt P19235); assay: ECL (MSD multi-spot), Fab 9.1 nM; blank 276
[17] = target: rHuman HGF R/c-MET/Fc Chimera, CF (R&D Systems Cat#358-MT/CF) (human) (UniProt P08581); assay: ECL (MSD multi-spot), Fab 9.1 nM; blank 276
[18] = target: rHuman IGF-1 sR (IGF-1 sR), CF (R&D Systems Cat#391-GR) (human) (UniProt P08069); assay: ECL (MSD multi-spot), Fab 9.1 nM; blank 276
[19] = target: rHuman Notch-1/Fc Chimera, CF (R&D Systems Cat#3647-TK) (human) (UniProt P46531); assay: ECL (MSD multi-spot), Fab 9.1 nM; blank 276
[20] = target: rHuman P-Cadherin/Fc Chimera, CF (R&D Systems Cat#861-PC) (human) (UniProt P22223); assay: ECL (MSD multi-spot), Fab 9.1 nM; blank 276
[21] = target: rHuman EGF R/Fc Chimera, CF (R&D Systems Cat#344-ER) (human) (UniProt P00533); assay: ECL (MSD multi-spot), Fab 36.3 nM; blank 314
[22] = target: rHuman ErbB2/Fc Chimera, CF (R&D Systems Cat#1129-ER) (human) (UniProt P04626); assay: ECL (MSD multi-spot), Fab 36.3 nM; blank 314
[23] = target: rHuman Erythropoietin R/Fc Chimera, CF (R&D Systems Cat#963-ER) (human) (UniProt P19235); assay: ECL (MSD multi-spot), Fab 36.3 nM; blank 314
[24] = target: rHuman HGF R/c-MET/Fc Chimera, CF (R&D Systems Cat#358-MT/CF) (human) (UniProt P08581); assay: ECL (MSD multi-spot), Fab 36.3 nM; blank 314
[25] = target: rHuman IGF-1 sR (IGF-1 sR), CF (R&D Systems Cat#391-GR) (human) (UniProt P08069); assay: ECL (MSD multi-spot), Fab 36.3 nM; blank 314
[26] = target: rHuman Notch-1/Fc Chimera, CF (R&D Systems Cat#3647-TK) (human) (UniProt P46531); assay: ECL (MSD multi-spot), Fab 36.3 nM; blank 314
[27] = target: rHuman P-Cadherin/Fc Chimera, CF (R&D Systems Cat#861-PC) (human) (UniProt P22223); assay: ECL (MSD multi-spot), Fab 36.3 nM; blank 314
[28] = target: rHuman EGF R/Fc Chimera, CF (R&D Systems Cat#344-ER) (human) (UniProt P00533); assay: ECL (MSD multi-spot) screen, antigen spotted on plate, Fab at 0.58 uM; blank spot 403
[29] = target: rHuman ErbB2/Fc Chimera, CF (R&D Systems Cat#1129-ER) (human) (UniProt P04626); assay: as above
[30] = target: rHuman HGF R/c-MET/Fc Chimera, CF (R&D Systems Cat#358-MT/CF) (human) (UniProt P08581); assay: as above
[31] = target: rHuman IGF-1 sR, CF (R&D Systems Cat#391-GR) (human) (UniProt P08069); assay: as above

Sequence of rHuman Erythropoietin R/Fc Chimera, CF (R&D Systems Cat#963-ER) (human) (P19235 25-250, change not shown): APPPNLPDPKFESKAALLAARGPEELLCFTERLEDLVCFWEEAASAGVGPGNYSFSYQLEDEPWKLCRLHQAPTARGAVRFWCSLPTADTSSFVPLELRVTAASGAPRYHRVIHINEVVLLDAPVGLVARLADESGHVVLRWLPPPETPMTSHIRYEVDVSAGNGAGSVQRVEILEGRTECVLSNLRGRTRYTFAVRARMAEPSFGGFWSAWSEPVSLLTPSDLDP

Substance: Fab VH4-34_IGHD7-27*01_IGHJ4*01 & V1-4_IGLJ4*01
- ECL signal [1]: 856 ECL signal
- ECL signal [2]: 845 ECL signal
- ECL signal [3]: 1170 ECL signal
- ECL signal [4]: 794 ECL signal
- ECL signal [5]: 860 ECL signal
- ECL signal [6]: 850 ECL signal
- ECL signal [7]: 1630 ECL signal
- ECL signal [8]: 1710 ECL signal
- ECL signal [9]: 1580 ECL signal
- ECL signal [10]: 2340 ECL signal
- ECL signal [11]: 1360 ECL signal
- ECL signal [12]: 1580 ECL signal
- ECL signal [13]: 2240 ECL signal
- ECL signal [14]: 800 ECL signal
- ECL signal [15]: 987 ECL signal
- ECL signal [16]: 697 ECL signal
- ECL signal [17]: 894 ECL signal
- ECL signal [18]: 788 ECL signal
- ECL signal [19]: 754 ECL signal
- ECL signal [20]: 589 ECL signal
- ECL signal [21]: 831 ECL signal
- ECL signal [22]: 1030 ECL signal
- ECL signal [23]: 722 ECL signal
- ECL signal [24]: 1060 ECL signal
- ECL signal [25]: 799 ECL signal
- ECL signal [26]: 633 ECL signal
- ECL signal [27]: 684 ECL signal
- ECL signal [28]: 1020
- ECL signal [29]: 1260
- ECL signal [30]: 1710
- ECL signal [31]: 1200
